Experimental data from patent US20180155451A1 (published 2018).

T1: FcγRIIb extracellular domain with C-terminal His tag (human, UniProt P31994 43-217)
T1 construct: extracellular domain; also called 2b; FcgRIIb; not shown: His tag at the C terminus
T1 sequence (looked up): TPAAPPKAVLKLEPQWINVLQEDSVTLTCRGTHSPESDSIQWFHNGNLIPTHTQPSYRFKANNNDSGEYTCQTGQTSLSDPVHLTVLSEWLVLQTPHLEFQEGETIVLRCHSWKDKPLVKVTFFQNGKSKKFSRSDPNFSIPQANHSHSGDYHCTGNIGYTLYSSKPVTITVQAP

B1: GpH7-A5/GpH7-B3 variant S267_05P/GpL16-k0 (antibody, human IgG1, kappa)
heavy 1: not shown
heavy 2: not shown
light: DIVMTQSPLSLPVTPGEPASISCQASESLVHSNRNTYLHWYLQKPGQSPQLLIYKVSNRFSGVPDRFSGSGSGTDFTLKISRVEAEDVGVYYCSQNTHVPPTFGQGTKVEIERTVAAPSVFIFPPSDEQLKSGTASVVCLLNNFYPREAKVQWKVDNALQSGNSQESVTEQDSKDSTYSLSSTLTLSKADYEKHKVYACEVTHQGLSSPVTKSFNRGEC
notes: He Ab: mutation in the GpH7-B3 H chain only; also called He Ab
B2: GpH7-A5/GpH7-B3 variant V266_13S/GpL16-k0 (antibody, human IgG1, kappa)
heavy 1: not shown
heavy 2: not shown
light: B1 light
notes: as for B1
B3: GpH7-A5/GpH7-B3 variant P331_20W/GpL16-k0 (antibody, human IgG1, kappa)
heavy 1: not shown
heavy 2: not shown
light: B1 light
notes: as for B1
B4: GpH7-A5/GpH7-B3 variant V266_08L/GpL16-k0 (antibody, human IgG1, kappa)
heavy 1: not shown
heavy 2: not shown
light: B1 light
notes: as for B1
B5: GpH7-A5/GpH7-B3 variant V266_10E/GpL16-k0 (antibody, human IgG1, kappa)
heavy 1: not shown
heavy 2: not shown
light: B1 light
notes: as for B1
B6: GpH7-A5/GpH7-B3 variant S267_09D/GpL16-k0 (antibody, human IgG1, kappa)
heavy 1: not shown
heavy 2: not shown
light: B1 light
notes: as for B1
B7: GpH7-A5/GpH7-B3 variant S267_06M/GpL16-k0 (antibody, human IgG1, kappa)
heavy 1: not shown
heavy 2: not shown
light: B1 light
notes: as for B1
B8: GpH7-A5/GpH7-B3 variant S267_04F/GpL16-k0 (antibody, human IgG1, kappa)
heavy 1: not shown
heavy 2: not shown
light: B1 light
notes: as for B1
B9: GpH7-A5/GpH7-B3 variant P331_04F/GpL16-k0 (antibody, human IgG1, kappa)
heavy 1: not shown
heavy 2: not shown
light: B1 light
notes: as for B1
B10: GpH7-A5/GpH7-B3 variant V266_07I/GpL16-k0 (antibody, human IgG1, kappa)
heavy 1: not shown
heavy 2: not shown
light: B1 light
notes: as for B1
B11: GpH7-A5/GpH7-B3 variant S267_08L/GpL16-k0 (antibody, human IgG1, kappa)
heavy 1: not shown
heavy 2: not shown
light: B1 light
notes: as for B1
B12: GpH7-A5/GpH7-B3 variant P331_06M/GpL16-k0 (antibody, human IgG1, kappa)
heavy 1: not shown
heavy 2: not shown
light: B1 light
notes: as for B1
B13: GpH7-A5/GpH7-B3 variant S267_01G/GpL16-k0 (antibody, human IgG1, kappa)
heavy 1: not shown
heavy 2: not shown
light: B1 light
notes: as for B1
B14: GpH7-A5/GpH7-B3 variant N325_13S/GpL16-k0 (antibody, human IgG1, kappa)
heavy 1: not shown
heavy 2: not shown
light: B1 light
notes: as for B1
B15: GpH7-A5/GpH7-B3 variant S337_08L/GpL16-k0 (antibody, human IgG1, kappa)
heavy 1: not shown
heavy 2: not shown
light: B1 light
notes: as for B1
B16: GpH7-A5/GpH7-B3 variant P331_16H/GpL16-k0 (antibody, human IgG1, kappa)
heavy 1: not shown
heavy 2: not shown
light: B1 light
notes: as for B1
B17: GpH7-A5/GpH7-B3 variant V266_06M/GpL16-k0 (antibody, human IgG1, kappa)
heavy 1: not shown
heavy 2: not shown
light: B1 light
notes: as for B1
B18: GpH7-A5/GpH7-B3 variant N325_08L/GpL16-k0 (antibody, human IgG1, kappa)
heavy 1: not shown
heavy 2: not shown
light: B1 light
notes: as for B1
B19: GpH7-A5/GpH7-B3 variant V266_18N/GpL16-k0 (antibody, human IgG1, kappa)
heavy 1: not shown
heavy 2: not shown
light: B1 light
notes: as for B1
B20: GpH7-A5/GpH7-B3 variant N325_09D/GpL16-k0 (antibody, human IgG1, kappa)
heavy 1: not shown
heavy 2: not shown
light: B1 light
notes: as for B1
B21: GpH7-A5/GpH7-B3 variant S267_02A/GpL16-k0 (antibody, human IgG1, kappa)
heavy 1: not shown
heavy 2: not shown
light: B1 light
notes: as for B1
B22: GpH7-A5/GpH7-B3 variant V266_09D/GpL16-k0 (antibody, human IgG1, kappa)
heavy 1: not shown
heavy 2: not shown
light: B1 light
notes: as for B1

Target: T2, FcγRIIIa extracellular domain with C-terminal His tag (human, UniProt P08637 17-208)
T2 construct: extracellular domain; also called 3a; FcgRIIIa; not shown: His tag at the C terminus
Assay: SPR (Biacore), relative binding, GpH7-A5/GpH7-B3/GpL16-k0 = 100
Procedure: (§1) Analysis of interaction between objective antibody and the FcγR was carried out using Biacore T100 (GE Healthcare). HBS-EP+ (GE Healthcare) was used as the running buffer, and the measurement temperature was set to 25° C. Chips produced by immobilizing the antigen peptide by the amine coupling method to a Series S Sencor Chip CM5 (GE Healthcare), or alternatively, chips produced by allowing preliminarily biotinylated antigen peptides to interact with and immobilize onto a Series S Sensor Chip SA (certified) (GE Healthcare) were used. Antibodies of interest were captured onto an antigen peptide-immobilized chip, and allowed to interact to each FcγR diluted with running buffer. To regenerate and repeatedly use the chip, the antibodies captured on the chip were washed off by reacting 10 mM glycine-HCl, pH 1.5.
(§2) The FcγR-binding activity of each antibody was assessed primarily using as an indicator the FcγR-binding activity and dissociation constant for FcγR.

T2 sequence (P08637 17-208): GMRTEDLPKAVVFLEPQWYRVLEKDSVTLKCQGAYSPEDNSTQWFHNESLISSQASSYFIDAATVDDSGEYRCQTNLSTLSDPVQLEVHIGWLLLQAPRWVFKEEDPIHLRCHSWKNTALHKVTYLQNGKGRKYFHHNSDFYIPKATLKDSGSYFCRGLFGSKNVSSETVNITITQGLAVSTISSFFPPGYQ

| He/Con_3a | Binder |
| --- | --- |
| 15.7 % of control | B1 |
| 28.1 % of control | B2 |
| 78.6 % of control | B3 |
| 118 % of control | B4 |
| 4.1 % of control | B5 |
| 181 % of control | B6 |
| 66 % of control | B7 |
| 11 % of control | B8 |
| 77.3 % of control | B9 |
| 114 % of control | B10 |
| 19.5 % of control | B11 |
| 74.8 % of control | B12 |
| 53.8 % of control | B13 |
| 65.1 % of control | B14 |
| 96.9 % of control | B15 |
| 80.2 % of control | B16 |
| 85.8 % of control | B17 |
| 33.3 % of control | B18 |
| 30.4 % of control | B19 |
| 48 % of control | B20 |
| 150 % of control | B21 |
| 2.7 % of control | B22 |

Target: T1, FcγRIIb extracellular domain with …
Assay: as above
Procedure: as §1, §2

| He/Con_2b | Binder |
| --- | --- |
| 31.5 % of control | B1 |
| 54.4 % of control | B2 |
| 111 % of control | B3 |
| 236 % of control | B4 |
| 15.2 % of control | B5 |
| 310 % of control | B6 |
| 210 % of control | B7 |
| 48 % of control | B8 |
| 110 % of control | B9 |
| 152 % of control | B10 |
| 109 % of control | B11 |
| 102 % of control | B12 |
| 105 % of control | B13 |
| 177 % of control | B14 |
| 100 % of control | B15 |
| 116 % of control | B16 |
| 251 % of control | B17 |
| 197 % of control | B18 |
| 69.7 % of control | B19 |
| 124 % of control | B20 |
| 243 % of control | B21 |
| 10.1 % of control | B22 |
